In publication PMC5506376:

Test system: CC(=O)N[C@H]1[C@@H](OP(=O)(O)OP(=O)(O)OC[C@H]2O[C@@H](n3ccc(=O)[nH]c3=O)[C@H](O)[C@@H]2O)O[C@H](C)[C@@H](NC(C)=O)[C@@H]1O
Experiment: purified protein
Settings: Mg2+

With “PglC (Campylobacter jejuni subsp. jejuni NCTC 11168 = ATCC 700819)” the Km was 7.2 ± 1.1 µM.
